Assay results reported in patent US20250084155A1.

Tests used:
[1] = target: HSP70 (human HSP70; the antigen of the binning, humanization and variant binding assays) (human) (UniProt P0DMV8); assay: Octet epitope binning, sandwich format; cell row C92F3-5 / column m77A; the sheet does not say whether rows or columns are the first antibody
[2] = target: HSP70 (human HSP70; the antigen of the binning, humanization and variant binding assays) (human) (UniProt P0DMV8); assay: Octet epitope binning, sandwich format; cell row C92F3-5 / column N15F2-5; the sheet does not say whether rows or columns are the first antibody
[3] = target: HSP70 (human HSP70; the antigen of the binning, humanization and variant binding assays) (human) (UniProt P0DMV8); assay: Octet epitope binning, sandwich format (first antibody on the sensor, then HSP70, then second antibody); cell row C92F3-5 / column C92F3-5; the sheet does not say whether rows or columns are the first antibody
[4] = target: HSP70 (human HSP70; the antigen of the binning, humanization and variant binding assays) (human) (UniProt P0DMV8); assay: Octet epitope binning, sandwich format; cell row N15F2-5 / column m77A; the sheet does not say whether rows or columns are the first antibody
[5] = target: HSP70 (human HSP70; the antigen of the binning, humanization and variant binding assays) (human) (UniProt P0DMV8); assay: Octet epitope binning, sandwich format; cell row N15F2-5 / column C92F3-5; the sheet does not say whether rows or columns are the first antibody
[6] = target: HSP70 (human HSP70; the antigen of the binning, humanization and variant binding assays) (human) (UniProt P0DMV8); assay: Octet epitope binning, sandwich format; cell row N15F2-5 / column N15F2-5; the sheet does not say whether rows or columns are the first antibody

HSP70 (human HSP70; the antigen of the binning, humanization and variant binding assays) (human), sequence (P0DMV8 whole entry, change not shown): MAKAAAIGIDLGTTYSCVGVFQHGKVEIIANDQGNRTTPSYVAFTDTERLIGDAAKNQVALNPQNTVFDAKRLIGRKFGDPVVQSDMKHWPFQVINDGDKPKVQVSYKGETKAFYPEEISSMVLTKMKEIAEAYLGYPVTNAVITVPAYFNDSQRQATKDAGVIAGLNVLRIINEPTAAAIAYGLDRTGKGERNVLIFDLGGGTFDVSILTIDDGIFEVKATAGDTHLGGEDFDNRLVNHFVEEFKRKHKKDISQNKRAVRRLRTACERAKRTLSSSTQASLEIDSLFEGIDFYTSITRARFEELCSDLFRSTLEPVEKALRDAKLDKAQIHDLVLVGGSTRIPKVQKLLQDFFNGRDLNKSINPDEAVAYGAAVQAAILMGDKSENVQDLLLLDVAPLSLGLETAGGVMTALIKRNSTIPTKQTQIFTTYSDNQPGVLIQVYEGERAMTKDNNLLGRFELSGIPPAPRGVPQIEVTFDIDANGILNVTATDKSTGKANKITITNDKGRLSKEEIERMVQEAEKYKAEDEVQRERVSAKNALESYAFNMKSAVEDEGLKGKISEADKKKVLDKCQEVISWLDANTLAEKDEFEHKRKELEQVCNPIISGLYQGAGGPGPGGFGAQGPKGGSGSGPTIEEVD

Row | maximal binding in the presence of the potentially competing antibody (given as a fraction; legend: percent) [1] | maximal binding in the presence of the potentially competing antibody (given as a fraction; legend: percent) [2] | maximal binding in the presence of the potentially competing antibody (given as a fraction; legend: percent) [3] | maximal binding in the presence of the potentially competing antibody (given as a fraction; legend: percent) [4] | maximal binding in the presence of the potentially competing antibody (given as a fraction; legend: percent) [5] | maximal binding in the presence of the potentially competing antibody (given as a fraction; legend: percent) [6] | Substance
1 | 0.781 | 0.489 | 0 | – | – | – | C92F3-5 (Fisher Scientific) anti-HSP70 antibody
2 | – | – | – | 0.761 | 0.492 | 0 | N15F2-5 (Enzo Life Sciences) anti-HSP70 antibody
